According to patent US20230265151A1, “GIP/GLP1 CO-AGONIST COMPOUNDS” (priority 2020, published 2023):
Numbering of substitutions follows the chain as printed.

T1: human GIP receptor (human, UniProt P48546 22-466)
T1 sequence (looked up): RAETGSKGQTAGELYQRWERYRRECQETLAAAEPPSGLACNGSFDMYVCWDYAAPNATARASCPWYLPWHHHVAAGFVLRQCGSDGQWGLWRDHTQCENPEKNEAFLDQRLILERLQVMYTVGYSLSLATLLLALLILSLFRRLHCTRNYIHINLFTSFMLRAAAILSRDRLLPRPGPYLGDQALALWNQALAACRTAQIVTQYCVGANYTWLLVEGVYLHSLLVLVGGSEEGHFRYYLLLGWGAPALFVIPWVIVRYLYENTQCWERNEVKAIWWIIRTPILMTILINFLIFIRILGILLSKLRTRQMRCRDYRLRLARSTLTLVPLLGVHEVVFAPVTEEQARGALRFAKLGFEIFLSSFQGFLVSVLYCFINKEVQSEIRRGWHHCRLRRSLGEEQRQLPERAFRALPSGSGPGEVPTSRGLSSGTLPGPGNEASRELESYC

T2: human glucose-dependent insulinotropic polypeptide (GIP) receptor (human, UniProt P48546 22-466)
T2 sequence (looked up): T1 sequence (looked up)

B1: Y-Aib-EGT-αMeF(2F)-TSD-4Pal-SI-αMeL-LD-Orn-IAQ-Aib-EFIK((εK)-(εK)-(γ-Glu)-CO-(CH2)12-CO2H)-αMeY-LIEGGK((εK)-(εK)-(γ-Glu)-CO-(CH2)12-CO2H)SSGAPPPS-NH2 (peptide)
peptide: YXEGTXTSDXSIXLDXIAQXEFIKXLIEGGKSSGAPPPS
modifications: Aib2, αMeF(2F)6, 4Pal10, αMeL13, Orn16, Aib20, αMeY25; acylated K24, K31 (groups as in name); C-terminal amide
B2: Example 203 (peptide)
peptide: B1 peptide with E28K, K31P
modifications: Aib2, αMeF(2F)6, 4Pal10, αMeL13, Orn16, Aib20, K24(Z), αMeY25, K28(Z), C-terminal NH2; Z = AEEA2-(γ-Glu)-(4-(4-tert-butylphenyl)butanoyl)
B3: Example 252 (peptide)
peptide: B1 peptide with E28K, K31P
modifications: Aib2, αMeF(2F)6, 2Nal10, αMeL13, Orn16, Aib20, K24(Z), αMeY25, K28(Z), C-terminal NH2; Z = AEEA2-(γ-Glu)-CO-(CH2)12-CO2H
B4: Y-Aib-EGT-αMeF(2F)-TSD-4Pal-SI-αMeL-LD-Orn-IAQ-Aib-EFIK((2-[2-(2-Amino-ethoxy)-ethoxy]-acetyl)2-(γ-Glu)-CO-(CH2)12-CO2H)-αMeY-LIK((2-[2-(2-Amino-ethoxy)-ethoxy] … (peptide)
peptide: B1 peptide with E28K, K31P
modifications: Aib2, αMeF(2F)6, 4Pal10, αMeL13, Orn16, Aib20, αMeY25; acylated K24, K28 (groups as in name); C-terminal amide
B5: Example 222 (peptide)
peptide: B1 peptide with E21K, K24X, E28K, K31P
modifications: Aib2, αMeF(2F)6, 4Pal10, αMeL13, Orn16, Aib20, K21(Z), D-Glu24, αMeY25, K28(Z), C-terminal NH2; Z = AEEA2-CO-(CH2)12-CO2H
B6: Example 204 (peptide)
peptide: B1 peptide with E21K, K24X, E28K, K31P
modifications: Aib2, αMeF(2F)6, 4Pal10, αMeL13, Orn16, Aib20, K21(Z), D-Glu24, αMeY25, K28(Z), C-terminal NH2; Z = AEEA2-(γ-Glu)-(4-(4-tert-butylphenyl)butanoyl)
B7: Y-Aib-EGT-αMeF(2F)-TSD-4Pal-SI-αMeL-LD-Orn-IAQ-Aib-EFIK((2-[2-(2-Amino-ethoxy)-ethoxy]-acetyl)2-(γ-Glu)-(4-(4-tert-butylphenyl)butanoyl))-αMeY-LIK((2-[2-(2-Amin … (peptide)
peptide: B1 peptide with E28K, K31P
modifications: Aib2, αMeF(2F)6, 4Pal10, αMeL13, Orn16, Aib20, αMeY25; acylated K24, K28 (groups as in name); C-terminal amide
B8: Example 227 (peptide)
peptide: B1 peptide with E21K, K24X, E28K, K31P
modifications: Aib2, αMeF(2F)6, 4Pal10, αMeL13, Orn16, Aib20, K21(Z), D-Glu24, αMeY25, K28(Z), C-terminal NH2; Z = AEEA3-(γ-Glu)-CO-(CH2)12-CO2H
B9: Example 226 (peptide)
peptide: B1 peptide with E28K, K31P
modifications: Aib2, αMeF(2F)6, 4Pal10, αMeL13, Orn16, Aib20, K24(Z), αMeY25, K28(Z), C-terminal NH2; Z = AEEA3-(γ-Glu)-CO-(CH2)12-CO2H
B10: Y-Aib-EGT-αMeF(2F)-TSD-4Pal-SI-αMeL-LD-Orn-IAQ-Aib-EFIK((2-[2-(2-Amino-ethoxy)-ethoxy]-acetyl)2-CO-(CH2)12-CO2H)-αMeY-LIK((2-[2-(2-Amino-ethoxy)-ethoxy]-acetyl) … (peptide)
peptide: B1 peptide with E28K, K31P
modifications: Aib2, αMeF(2F)6, 4Pal10, αMeL13, Orn16, Aib20, αMeY25; acylated K24, K28 (groups as in name); C-terminal amide
B11: Example 253 (peptide)
peptide: B1 peptide with E21K, K24X, E28K, K31P
modifications: Aib2, αMeF(2F)6, 2Nal10, αMeL13, Orn16, Aib20, K21(Z), D-Glu24, αMeY25, K28(Z), C-terminal NH2; Z = AEEA2-(γ-Glu)-CO-(CH2)12-CO2H
B12: Example 205 (peptide)
peptide: YXEGTXTSDXSIXLDXIAQXKFIXXLIEGGPSSGAPPPSK
modifications: Aib2, αMeF(2F)6, 4Pal10, αMeL13, Orn16, Aib20, K21(Z), D-Glu24, αMeY25, K40(Z), C-terminal NH2; Z = AEEA2-(γ-Glu)-(4-(4-tert-butylphenyl)butanoyl)
B13: Example 221 (peptide)
peptide: B12 peptide with I17K, K21E
modifications: Aib2, αMeF(2F)6, 4Pal10, αMeL13, Orn16, K17(Z), Aib20, D-Glu24, αMeY25, K40(Z), C-terminal NH2; Z = AEEA2-CO-(CH2)12-CO2H
B14: Example 251 (peptide)
peptide: B12 peptide with I17K, K21E
modifications: Aib2, αMeF(2F)6, 2Nal10, αMeL13, Orn16, K17(Z), Aib20, D-Glu24, αMeY25, K40(Z), C-terminal NH2; Z = AEEA2-(γ-Glu)-CO-(CH2)12-CO2H
B15: Example 228 (peptide)
peptide: B12 peptide
modifications: Aib2, αMeF(2F)6, 4Pal10, αMeL13, Orn16, Aib20, K21(Z), D-Glu24, αMeY25, K40(Z), C-terminal NH2; Z = AEEA3-(γ-Glu)-CO-(CH2)12-CO2H
B16: Example 258 (peptide)
peptide: B12 peptide
modifications: Aib2, αMeF(2F)6, 2Nal10, αMeL13, Orn16, Aib20, K21(Z), D-Glu24, αMeY25, K40(Z), C-terminal NH2; Z = AEEA2-CO-(CH2)12-CO2H
B17: Example 209 (peptide)
peptide: B12 peptide with I17K, K21E
modifications: Aib2, αMeF(2F)6, 4Pal10, αMeL13, Orn16, K17(Z), Aib20, D-Glu24, αMeY25, K40(Z), C-terminal NH2; Z = AEEA-(γ-Glu)-(4-(4-tert-butylphenyl)butanoyl)
B18: Example 254 (peptide)
peptide: B12 peptide
modifications: Aib2, αMeF(2F)6, 2Nal10, αMeL13, Orn16, Aib20, K21(Z), D-Glu24, αMeY25, K40(Z), C-terminal NH2; Z = AEEA2-(γ-Glu)-CO-(CH2)12-CO2H
B19: Example 257 (peptide)
peptide: B12 peptide with I17K, K21E
modifications: Aib2, αMeF(2F)6, 2Nal10, αMeL13, Orn16, K17(Z), Aib20, D-Glu24, αMeY25, K40(Z), C-terminal NH2; Z = AEEA2-CO-(CH2)12-CO2H
B20: Example 225 (peptide)
peptide: B12 peptide with I17K, K21E
modifications: Aib2, αMeF(2F)6, 4Pal10, αMeL13, Orn16, K17(Z), Aib20, D-Glu24, αMeY25, K40(Z), C-terminal NH2; Z = AEEA3-(γ-Glu)-CO-(CH2)12-CO2H

Assays:
Assay in all cases: cell-based or functional assay
human GIP receptor = biological target: T1, human GIP receptor
human glucagon receptor [1] = biological target: human glucagon receptor (human, UniProt P47871 26-477)
[2] = biological target: T2, human glucose-dependent insulinotropic …
[3] = biological target: human glucagon-like peptide-1 (GLP-1) receptor (human, UniProt P43220 24-463)
human glucagon receptor [4] = biological target: human glucagon receptor (human, UniProt P47871 26-477); remark: listed apart in the source

| Binder | cAMP EC50 (1.0% HSA) (human GIP receptor) | cAMP EC50 (1.0% HSA) (human glucagon receptor [1]) | cAMP EC50 [2] | cAMP EC50 [3] | cAMP EC50 (human glucagon receptor [4]) | cAMP Emax [3] | cAMP Emax [2] |
| --- | --- | --- | --- | --- | --- | --- | --- |
| B1 | 1.06 nM | > 9950 nM | – | – | – | – | – |
| B2 | – | – | 0.0721 nM | 0.535 nM | > 9950 nM | – | – |
| B3 | – | – | 0.049 nM | 0.555 nM | > 9950 nM | – | – |
| B4 | 1.73 nM | > 9950 nM | – | – | – | – | – |
| B5 | – | – | 0.0195 nM | 0.518 nM | > 9950 nM | – | – |
| B6 | – | – | 0.0304 nM | 0.47 nM | > 9950 nM | 126% | – |
| B7 | 0.682 nM | > 9950 nM | – | – | – | – | – |
| B8 | – | – | 0.0224 nM | 1.22 nM | > 9950 nM | – | – |
| B9 | – | – | 0.0232 nM | 0.611 nM | > 9950 nM | – | – |
| B10 | 0.832 nM | > 9950 nM | – | – | – | – | – |
| B11 | – | – | 0.0295 nM | 0.43 nM | > 9950 nM | – | – |
| B12 | – | – | 0.0264 nM | 0.287 nM | > 9950 nM | – | – |
| B13 | – | – | 0.0279 nM | 1.83 nM | > 9950 nM | 83% | – |
| B14 | – | – | 0.0305 nM | 0.338 nM | > 9950 nM | – | – |
| B15 | – | – | 0.0232 nM | 1.34 nM | > 9950 nM | 91.1% | – |
| B16 | – | – | 0.0473 nM | 0.653 nM | > 9950 nM | – | 90.3% |
| B17 | – | – | 0.0133 nM | 0.235 nM | > 9950 nM | – | – |
| B18 | – | – | 0.0273 nM | 0.507 nM | > 9950 nM | – | – |
| B19 | – | – | 0.148 nM | 2.03 nM | > 9950 nM | 82% | – |
| B20 | – | – | 0.0466 nM | 9.62 nM | > 9950 nM | – | – |
